We go through 4 molecules from patent publication US20240058465A1 (SUTRO BIOPHARMA, published 2024).

The assay has as its target receptor tyrosine kinase orphan receptor 1 (ROR1) on Ntera-2 cells (human, UniProt Q01973 30-937). The assay is described as follows: cell-based or functional assay.

B1: Conjugate 22 (D04-Y180/F404-LP11) (antibody, human IgG1, kappa)
heavy: MEVQLVESGGGLVQPGGSLRLSCAASGFNISDYDIHWVRQAPGKGLEWVGGIDPADGSTDYADSVKGRFTISADTSKNTAYLQMNSLRAEDTAVYYCARDYGVYDYWGQGTLVTVSSASTKGPSVFPLAPSSKSTSGGTAALGCLVKDYFPEPVTVSWNSGALTSGVHTFPAVLQSSGLSLSSVVTVPSSSLGTQTYICNVNHKPSNTKVDKKVEPKSCDKTHTCPPCPAPELLGGPSVFLFPPKPKDTLMISRTPEVTCVVVDVSHEDPEVKFNWYVDGVEVHNAKTKPREEQYNSTYRVVSVLTVLHQDWLNGKEYKCKVSNKALPAPIEKTISKAKGQPREPQVYTLPPSREEMTKNQVSLTCLVKGFYPSDIAVEWESNGQPENNYKTTPPVLDSDGSFLYSKLTVDKSRWQQGNVFSCSVMHEALHNHYTQKSLSLSPGK
light: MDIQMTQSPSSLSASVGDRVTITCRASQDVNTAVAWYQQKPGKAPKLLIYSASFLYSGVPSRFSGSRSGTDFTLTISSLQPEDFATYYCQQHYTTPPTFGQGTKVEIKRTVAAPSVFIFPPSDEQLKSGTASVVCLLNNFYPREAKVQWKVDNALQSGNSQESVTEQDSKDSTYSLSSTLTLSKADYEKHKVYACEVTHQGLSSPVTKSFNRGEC
modifications: pAMF at Y180 and F404 (EU), each linked to LP11
For the molecule B1, the “cell killing EC50, NTERA-2 cells” value is above 10 nM and the “cell killing Span, NTERA-2 cells” value is below 20%.

B2: D04-Y180/F404-LP32 (printed under conjugate number 21, DAR 3.85) (antibody, human IgG1, kappa)
heavy: MEVQLVESGGGLVQPGGSLRLSCAASGFNISDYDIHWVRQAPGKGLEWVGGIDPADGSTDYADSVKGRFTISADTSKNTAYLQMNSLRAEDTAVYYCARDYGVYDYWGQGTLVTVSSASTKGPSVFPLAPSSKSTSGGTAALGCLVKDYFPEPVTVSWNSGALTSGVHTFPAVLQSSGLSLSSVVTVPSSSLGTQTYICNVNHKPSNTKVDKKVEPKSCDKTHTCPPCPAPELLGGPSVFLFPPKPKDTLMISRTPEVTCVVVDVSHEDPEVKFNWYVDGVEVHNAKTKPREEQYNSTYRVVSVLTVLHQDWLNGKEYKCKVSNKALPAPIEKTISKAKGQPREPQVYTLPPSREEMTKNQVSLTCLVKGFYPSDIAVEWESNGQPENNYKTTPPVLDSDGSFLYSKLTVDKSRWQQGNVFSCSVMHEALHNHYTQKSLSLSPGK
light: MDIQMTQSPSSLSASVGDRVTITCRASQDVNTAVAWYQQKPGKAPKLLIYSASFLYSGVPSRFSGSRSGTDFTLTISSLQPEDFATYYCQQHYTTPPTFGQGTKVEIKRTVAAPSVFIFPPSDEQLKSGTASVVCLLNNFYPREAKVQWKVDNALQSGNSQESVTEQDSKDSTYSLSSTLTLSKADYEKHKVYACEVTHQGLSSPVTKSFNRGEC
modifications: pAMF at Y180 and F404 (EU), each linked to LP32
As for B2, the “cell killing EC50, NTERA-2 cells” value is above 10 nM and the “cell killing Span, NTERA-2 cells” value was below 20%.

B3: Conjugate 1 (D04-Y180/F404-LP1) (antibody, human IgG1, kappa)
heavy: MEVQLVESGGGLVQPGGSLRLSCAASGFNISDYDIHWVRQAPGKGLEWVGGIDPADGSTDYADSVKGRFTISADTSKNTAYLQMNSLRAEDTAVYYCARDYGVYDYWGQGTLVTVSSASTKGPSVFPLAPSSKSTSGGTAALGCLVKDYFPEPVTVSWNSGALTSGVHTFPAVLQSSGLSLSSVVTVPSSSLGTQTYICNVNHKPSNTKVDKKVEPKSCDKTHTCPPCPAPELLGGPSVFLFPPKPKDTLMISRTPEVTCVVVDVSHEDPEVKFNWYVDGVEVHNAKTKPREEQYNSTYRVVSVLTVLHQDWLNGKEYKCKVSNKALPAPIEKTISKAKGQPREPQVYTLPPSREEMTKNQVSLTCLVKGFYPSDIAVEWESNGQPENNYKTTPPVLDSDGSFLYSKLTVDKSRWQQGNVFSCSVMHEALHNHYTQKSLSLSPGK
light: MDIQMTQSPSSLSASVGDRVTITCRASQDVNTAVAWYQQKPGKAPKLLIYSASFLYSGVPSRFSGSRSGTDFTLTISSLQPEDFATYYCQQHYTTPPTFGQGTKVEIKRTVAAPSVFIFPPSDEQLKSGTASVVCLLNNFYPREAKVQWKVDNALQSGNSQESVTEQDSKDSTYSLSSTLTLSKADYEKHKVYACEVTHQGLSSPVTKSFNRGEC
modifications: pAMF at Y180 and F404 (EU), each linked to LP1
B3: the “cell killing EC50, NTERA-2 cells” value came out at 0.085 nM and the “cell killing Span, NTERA-2 cells” value came to 56%.

B4: Conjugate 21 (D04-F404-LP32) (antibody, human IgG1, kappa)
heavy: MEVQLVESGGGLVQPGGSLRLSCAASGFNISDYDIHWVRQAPGKGLEWVGGIDPADGSTDYADSVKGRFTISADTSKNTAYLQMNSLRAEDTAVYYCARDYGVYDYWGQGTLVTVSSASTKGPSVFPLAPSSKSTSGGTAALGCLVKDYFPEPVTVSWNSGALTSGVHTFPAVLQSSGLYSLSSVVTVPSSSLGTQTYICNVNHKPSNTKVDKKVEPKSCDKTHTCPPCPAPELLGGPSVFLFPPKPKDTLMISRTPEVTCVVVDVSHEDPEVKFNWYVDGVEVHNAKTKPREEQYNSTYRVVSVLTVLHQDWLNGKEYKCKVSNKALPAPIEKTISKAKGQPREPQVYTLPPSREEMTKNQVSLTCLVKGFYPSDIAVEWESNGQPENNYKTTPPVLDSDGSFLYSKLTVDKSRWQQGNVFSCSVMHEALHNHYTQKSLSLSPGK
light: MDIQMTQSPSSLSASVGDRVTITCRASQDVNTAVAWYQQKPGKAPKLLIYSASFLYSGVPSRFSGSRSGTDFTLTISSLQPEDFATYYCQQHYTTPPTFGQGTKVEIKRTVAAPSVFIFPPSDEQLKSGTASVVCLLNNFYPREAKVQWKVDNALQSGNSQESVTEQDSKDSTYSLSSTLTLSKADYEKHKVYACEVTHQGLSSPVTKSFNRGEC
modifications: pAMF at F404 (EU), linked to LP32
As for B4, the “cell killing EC50, NTERA-2 cells” value is 2.96 nM and the “cell killing Span, NTERA-2 cells” value was determined as 97%.
